Measured values from the supplement of paper PMC9170038.

System: MS2 coat protein
Test: apparent KD of MS2 coat protein; designed switch direction (-1 OFF switch, 1 ON switch): -1; higher = weaker reporter binding
Summary of the method: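 Designed RNA switches sharing common flanks were transcribed on Illumina chips by stalled E. coli RNA polymerase. They were titrated with SNAP-549-labelled MS2 coat protein, from 0.7 or 1.5 nM doubling to 3 µM, in Tris-HCl pH 7.5 buffer with KCl, MgCl2, BSA, DTT, tRNA and Tween-20. Titrations ran without input, with 200 uM small-molecule ligand, or with an oligonucleotide input. The apparent KD of each design is the median over its clusters, after curve-fitting of normalised cluster fluorescence.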

[1] = input ligand: microRNA oligo, concentration not stated
[2] = Eterna round: R95, input ligand: microRNA oligo, concentration not stated
[3] = Eterna round: R95, input ligand: FMN 200 uM
[4] = Eterna round: R95, input ligand: none

Sequence	apparent KD of MS2 coat protein (input ligand: FMN 200 uM) [nM]	apparent KD of MS2 coat protein [1] [nM]	apparent KD of MS2 coat protein (input ligand: none) [nM]	apparent KD of MS2 coat protein [2] [nM]	apparent KD of MS2 coat protein [3] [nM]	apparent KD of MS2 coat protein [4] [nM]
GCACGGAGUGUAGGAUAUCUGUGCGAUUAGCUCAGAGAAGGACACAUGAGGAUCACCCAUGUGUAACUCAACAAUAAUCCGUGC [Eli exng1 - 073] (Eterna round: R96, puzzle: Exclusion NG 1)	18.3	8.53	11.9			
GUAGAGUCAGGAUAUACGAGAUCGAAAGAUCGGUAGUCCUUACAUGAGGAUCACCCAUGUAGAAGGGACUCUAC [Omei mod 7 to Eli's favorate candidate (ch.parushev)] (Eterna round: R97, puzzle: Exclusion 2)	118		15.8			
GCAGCAUAGUCGGAAACGACAGAACAUGAGGAUCACCCAUGUUAGGAUAUGGUCUGGAUUACAGGCCAGAAGGGACAAAGCUGC [Eli exng3 - 009] (Eterna round: R96, puzzle: Exclusion NG 3)	34.8	29.7	39.9			
AAAUGAUGUCAGGAUAUUGACGUUAAAAGAACGCAAGAAGGGACAACAUGAGGAUCACCCAUGUGGUCCUAUAA [Bira] (puzzle: Exclusion 6)				13		
UAUAAUCGAGGAUAUACAUGAGGAUCACCCAUGUGUUGCCGCGUGAUGUGUUUGUCAGGUAGAAGGCGAUUAUA [Exclusion 3 - Mod of Jieux's Gilly Gone Silly 23 v.9] (puzzle: Exclusion 3)				153		
ACAUGAGGAUCACCCAUGUAAACAUAAUGGCUCAUGUAGAGUCAGGAUAUGCGUGGCGAACAAACGCAGAAGGGACAAGACUGG [Deportation 26 - Jieux - Exclusion NG 3] (Eterna round: R96, puzzle: Exclusion NG 3)	28.1	30.8	29.6			
AUCCGACAUGAGGAUCACCCAUGUCAGGAUAUGGACUGACAUCGAAAGGAUGGAAGAACCAGAAGGGACUGGGC [Betiqu] (Eterna round: R96, puzzle: Exclusion 1)	71.7	17.1	20.1			
UAAUAACAAGCAGGAUCCUACAUGAGGAUCACCCAUGUGCUCGUCUUAUAAAGUACUAUCACGAAAGUGAUAGUACA [Mat - Sensor v3 - turn-off var 1 - Eli Mod - D70] (puzzle: Sensor v3, turn-off variant 1)				148	272	315
UUGUUAUAUGUAGGAUAUGCGUGUUAUUAUUAGGCAGAAGGACAUGAGGAUCACCCAUGUAUGUUGUUGUUAUAUAUUAUAUAU [Title] (Eterna round: R96, puzzle: Exclusion NG 1)	22.9	17.8	25.6			
UAUGGUUAAGUCAGGAUAUACAUACAGAAAUCUGAGUAGAAGGGACAUGAGGAUCACCCAUGUAUGGUAGUGUU [Ex4 #55] (Eterna round: R97, puzzle: Brourd's mod of Exclusion 4)	141		96.2			
CUGAGGUAGCGGUCCUAUGACAUGAGGAUCACCCAUGUACCUUGCUACGAGCUUUUUGCUCGUCUUAUAAUUCUCAG [Mat - Sensor v3 - turn-off var 1 - JL Mod - D31] (puzzle: Sensor v3, turn-off variant 1)				96.5	151	247
UUUUACAUAGGAUAUAGUUGCUUUUACAUGAGGAUCACCCAUGUCUCUCCUCUCUCUCUUCUAGAAGGAUGUUUCU [JR_E5_Sub011] (Eterna round: R96, puzzle: Exclusion 5)	55.3	35.7	47			
ACCUCUAUCUAGGAUAUUGGAACCCGGUUAAAACAAGAAGGAGAUACAUGAGGAUCACCCAUGUUAACGAUGGA [Ereseninso] (puzzle: Exclusion 6)				23.3	97.5	28.5
